From patent US20180237502A1 (INTEGRATED BIOTHERAPEUTICS, published 2018)

T1: SUDV GPdTM (Sudan virus (SUDV), UniProt Q66814 33-637)
T1 sequence: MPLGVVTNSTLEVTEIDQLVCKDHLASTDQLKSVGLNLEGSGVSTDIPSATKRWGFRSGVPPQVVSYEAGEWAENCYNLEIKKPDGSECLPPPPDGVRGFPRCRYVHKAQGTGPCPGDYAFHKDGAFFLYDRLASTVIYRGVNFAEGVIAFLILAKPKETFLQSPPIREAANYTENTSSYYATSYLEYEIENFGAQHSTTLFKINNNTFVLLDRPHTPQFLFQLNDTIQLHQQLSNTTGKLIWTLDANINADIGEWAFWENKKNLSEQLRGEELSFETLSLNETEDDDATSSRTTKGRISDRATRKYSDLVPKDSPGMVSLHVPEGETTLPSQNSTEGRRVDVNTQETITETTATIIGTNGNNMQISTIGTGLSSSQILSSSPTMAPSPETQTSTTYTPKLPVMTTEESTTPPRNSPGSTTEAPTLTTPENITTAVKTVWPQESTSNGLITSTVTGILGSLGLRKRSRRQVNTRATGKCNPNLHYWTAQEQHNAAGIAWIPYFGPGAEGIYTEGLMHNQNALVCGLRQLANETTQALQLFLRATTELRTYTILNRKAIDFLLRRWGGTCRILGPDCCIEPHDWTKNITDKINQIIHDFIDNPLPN

B1: murine monoclonal antibody 17C6 (antibody, V domains shown)
VH: EVQLQESGPGLVQPSQSLSITCTVSGFSLTSYGVHWVRQSPGKGLEWLGVIWSGGSTDYNAAFISRLSISKDNSKSQVFFKMNSLQADDTAIYYCARNWFDYDNYYSMDYWGQGTSVTVSS
VL: DIQMTQTTSSLSASLGDRVTISCRASQDISNYLNWYQQKPDGTVKLLIYYTSRLHSGVPSRFSGSGSGTDFSLTISNQEPEDIATYYCQQYSNLPWTFGGGTKLEIKR
B2: murine monoclonal antibody 16G8 (antibody, V domains shown)
VH: EVQLQESGPGLVKPGASVKISCKASGYSFTGYYMNWVKQSPEKSLEWIGEINPSTGGTTYNQKFKAKATLTVDKSSSTAYMQLKSLTSEDSAVYYCVRYSHYYGSGSWYFDVWGTGTTVTVSS
VL: DIQMTQSPASLSASVGETVTITCRASENIYSNLAWYQQKQGKSPQLLVNAATNLADGVPSRFSGSGSGTQFSLKINSLQPEDFGSYYCQHFYVTPYMFGSGTKLEIKR
notes: also called m16G8
B3: murine monoclonal antibody 8C4 (antibody, V domains shown)
VH: EVQLQESGPELKKPGETVKISCKASGYTFTTYGMSWVKQAPGKGLKWMGRINTYSGVPTYADEFKGRFAFSLENSASTAYLQINNLKNEDTATYFCARGDGGHWFANWGQGTLVTVSA
VL: DIQMTQSPSSLSASLGGKVTITCKASQDINKNIAWYQHKPGKGPRLLIWYKSALQPGIPSRFSGSGSGRDYSFSISNLEPEDIATYSCLQYDNLPPTFGGGTKLEIKR
notes: also called m8C4
B4: murine monoclonal antibody 4B8 (antibody, V domains shown)
VH: EVQLQESGPGILQPSQTLSLTCSFSGFSLRTLGMGVGWIRQSSGKGLEWLAHIWWSDENYYNPALKSRLTISKDTSKNQVFLRIANVDTAETATYYCARIAYDGYFDYWGQGTSLTVSS
VL: KFPSQLLLLLLFGIPGDRVTITCKASEDIYNRLAWYQQKPGNAPRLLISGATSLETGVPSRFSGSGSGKDYTLSITSLQTEDVATYYCQQYWTTPWTFGGGTKLEIKR
notes: also called m4B8
B5: murine monoclonal antibody 2D8 (antibody, V domains shown)
VH: EVQLQESGGELVRPGTSVKISCKASGYTFTNFWLGWIKERPGHGLEWIGDIYPGGHYTNYNENFKGKATLTADTSSNTAYMQVSSLTSEDSAVYFCFTQYYDMDYWGQGTSVTVSS
VL: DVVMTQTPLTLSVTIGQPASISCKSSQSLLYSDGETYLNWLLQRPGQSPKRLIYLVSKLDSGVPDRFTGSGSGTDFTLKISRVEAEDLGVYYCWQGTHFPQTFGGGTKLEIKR

Columns and labels:
SUDV GPdTM = target: T1, SUDV GPdTM
SUDV GPddmuc = SUDV GPddmuc (Sudan virus (SUDV), UniProt Q66814 33-632)
MARV GPddmuc = target: T2, MARV GPddmuc (Marburg virus (MARV), UniProt P35253 19-637); test: ELISA, purified GPddmuc immobilized, serial dilutions of purified mouse mAb
T2 construct: also called Marburg virus glycoprotein GPddmuc

| Binder | EC50 (SUDV GPdTM) | EC50 (SUDV GPddmuc) | binding result (MARV GPddmuc) |
| --- | --- | --- | --- |
| B1 | 2 µg/mL |  |  |
| B2 | > 10 µg/mL |  |  |
| B3 | 0.15 µg/mL |  |  |
| B4 | 0.088 µg/mL | 0.095 µg/mL | no binding |
| B5 | > 10 µg/mL |  |  |
